± gives the half width of the 95% confidence interval.
Experiments:
[1] = folding stability dG unfold from chymotrypsin proteolysis; higher = more stable
Procedure: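 Folding stability of de novo designed mini-proteins (<80 aa, no Cys; designed by TrROS, TrMRF, ProteinMPNN and the joint model) was measured by cDNA display proteolysis with trypsin and chymotrypsin. Each protease was used at 11 concentrations in a threefold dilution series plus a no-protease condition. K50 was inferred by Bayesian fitting of sequencing counts, and dG unfold was derived against a sequence-predicted unfolded-state K50 (Tsuboyama et al. method). Sequences shown include variable-length N-terminal GS-type padding (SAGGSAGG...) inside a display construct carrying a PA tag. Rows were kept only if the AF2 dimer inter-PAE was >15, to exclude likely homo-oligomers.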

[2] = folding stability dG unfold (combined trypsin and chymotrypsin); higher = more stable
In short: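 Digests were run with trypsin and chymotrypsin at 11 concentrations in threefold dilutions, plus a no-protease condition, on designed mini-proteins in a PA-tagged cDNA display construct. The mini-proteins were under 80 residues, had no cysteine, and were kept only when AlphaFold2 dimer inter-PAE was above 15. After sequencing, Bayesian fitting of the counts gave K50, from which unfolding free energy was derived against a sequence-predicted unfolded-state K50 and a shared folded-state K50, per protease or combined.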

SAGGSAGGSAGGSTVTVTSEEEAQEAREALAAERAAAEPGAEPPEAFPVEVEVVPPELRSAGGSAGGSAGGS [r4_498_JUSTAS]
folding stability dG unfold [1]: 0.633 ± 0.047 kcal/mol | folding stability dG unfold [2]: 0.0161 ± 0.22 kcal/mol

SAGGSAGGSAGGVRIPPGHWKHRLGFPNGKENEFNIPPGAPIEIPPNADDVKIQEIEPVPSAGGSAGGSAGG [r7_542_TrROS]
folding stability dG unfold [1]: -0.251 ± 0.36 kcal/mol | folding stability dG unfold [2]: < -1 kcal/mol

SAGGSAGGSAGGVTVSPEEYLATFPPGLTLRDSAGNLHELGDRAPVDPAAPVTLLSPEELSAGGSAGGSAGG [r7_507_JUSTAS]
folding stability dG unfold [1]: 0.464 ± 0.039 kcal/mol | folding stability dG unfold [2]: -0.18 ± 0.12 kcal/mol

SAGGSAGGSAGKKKVLILGGDAVATAKELKKLGEDVEVEVLESGEDLEEHLKNYDLVLSGSAGGSAGGSAGG [r17_225_TrMRF]
folding stability dG unfold [1]: 0.344 ± 0.14 kcal/mol | folding stability dG unfold [2]: 0.106 ± 0.27 kcal/mol

SAGGSAGGSAGKKTLYVIKIELSDEQLKEAKKEGKPLKLKAEIVEVKPVKVEVKKEYKKESAGGSAGGSAGG [r11_26_TrROS_Hall]
folding stability dG unfold [1]: 0.586 ± 0.31 kcal/mol | folding stability dG unfold [2]: -0.167 ± 0.56 kcal/mol

SAGGSAGGSAGMETRLIAVLEDGEAVFEDGGTLITVPADEDVADIPDGGGLGTIYIPKDGSAGGSAGGSAGG [r11_647_TrMRF]
folding stability dG unfold [1]: 0.53 ± 0.036 kcal/mol | folding stability dG unfold [2]: -0.0625 ± 0.17 kcal/mol

SAGGSAGGSAGMGSTSTSTSITPTPEGRIVVDTTTTFTDPGGVPVGSTTTTTTLPPGAAASAGGSAGGSAGG [r11_898_JUSTAS]
folding stability dG unfold [1]: 0.242 ± 0.066 kcal/mol | folding stability dG unfold [2]: -0.279 ± 0.16 kcal/mol

SAGGSAGGSAGMKDNLVVTRTYTLPDDTVLVTRATFDSNPELVTVDVTEVPLSDVAPDAVSAGGSAGGSAGG [r11_493_TrMRF]
folding stability dG unfold [1]: 0.514 ± 0.11 kcal/mol | folding stability dG unfold [2]: -0.0312 ± 0.14 kcal/mol

SAGGSAGGSAGMKVIVLPVPPNADRVRITYEKGPTLEIEAREDEPVVIVAPENEFTVEVDSAGGSAGGSAGG [r11_52_TrMRF]
folding stability dG unfold [1]: -0.383 ± 0.28 kcal/mol | folding stability dG unfold [2]: < -1 kcal/mol

SAGGSAGGSAGMLSVTELSTEEKGSLVTTTTRATVGSTTVTTTTTTFVPRSTALLNPDRGSAGGSAGGSAGG [r11_213_JUSTAS]
folding stability dG unfold [1]: 0.55 ± 0.089 kcal/mol | folding stability dG unfold [2]: -0.0509 ± 0.48 kcal/mol

SAGGSAGGSAGMRLLTEEIVVEQFFYETGETRLTVLTKEILVVPPRPVPVPLPEGGLRLLSAGGSAGGSAGG [r11_307_JUSTAS]
folding stability dG unfold [1]: 0.925 ± 0.11 kcal/mol | folding stability dG unfold [2]: 0.184 ± 0.13 kcal/mol

SAGGSAGGSAGMVIPSTSPEEAVEKLRELVEKRGDFLVDVKPTEVHPDGTVVIETKKKPLSAGGSAGGSAGG [r17_430_JUSTAS]
folding stability dG unfold [1]: 0.21 ± 0.09 kcal/mol | folding stability dG unfold [2]: -0.269 ± 0.21 kcal/mol

SAGGSAGGSAGMVTEESLEIEPGKGLIVRTVTDRRESGIVTETEKTPVSEAEREAIRKALSAGGSAGGSAGG [r11_47_JUSTAS]
folding stability dG unfold [1]: 0.0861 ± 0.056 kcal/mol | folding stability dG unfold [2]: -0.201 ± 0.11 kcal/mol

SAGGSAGGSAGNISSLPPTPITGSSLKRFVVKRPDGTEEEVTLEITYYPETGKEIISTIKSAGGSAGGSAGG [r11_1024_JUSTAS]
folding stability dG unfold [1]: 0.107 ± 0.31 kcal/mol | folding stability dG unfold [2]: -0.0512 ± 0.21 kcal/mol

SAGGSAGGSAGPDVEVVIIPVDPETGEPLDALPIPIPSPEGGLVDEIVKAIPPDRYRVLASAGGSAGGSAGG [r17_339_TrMRF]
folding stability dG unfold [1]: -0.336 ± 0.45 kcal/mol | folding stability dG unfold [2]: < -1 kcal/mol

SAGGSAGGSAGPMYKLKAELNNKPFEVMINPDMPPDDQIYIRDPGEWIEFNIENMKVEPVSAGGSAGGSAGG [r11_247_TrROS]
folding stability dG unfold [1]: 0.298 ± 0.21 kcal/mol | folding stability dG unfold [2]: -0.0971 ± 0.14 kcal/mol

SAGGSAGGSAGPRRFMFQIPADEVKLEFPGGAKVTDVEEDPDGYRRVMIEIPPGADPELKSAGGSAGGSAGG [r17_48_TrROS]
folding stability dG unfold [1]: 0.142 ± 0.32 kcal/mol | folding stability dG unfold [2]: -0.129 ± 0.2 kcal/mol

SAGGSAGGSAGQPKPLPGGGEVKVEVYPPNNGKKKKFEIPPNEPDWIKELAKPGYSVHIESAGGSAGGSAGG [r11_1006_TrROS]
folding stability dG unfold [1]: 0.0183 ± 0.089 kcal/mol | folding stability dG unfold [2]: -0.677 ± 0.43 kcal/mol

SAGGSAGGSAGSMDSLPMPQVTPKVVELNVPPEEAEKLKKELGAKEIKFSPEGKLIIYLESAGGSAGGSAGG [r11_64_JUSTAS]
folding stability dG unfold [1]: -0.353 ± 0.078 kcal/mol | folding stability dG unfold [2]: -0.453 ± 0.2 kcal/mol

SAGGSAGGSAGSMVEVTYEPDPATGGSRIVTTTRFPDRNTVTVTELDPNAGVPLETVEVESAGGSAGGSAGG [r11_676_JUSTAS]
folding stability dG unfold [1]: -0.16 ± 0.029 kcal/mol | folding stability dG unfold [2]: -0.433 ± 0.089 kcal/mol

SAGGSAGGSAGTATLELTVGGKKATATVEPDPDSPAPVVTVKVGDKPVVLNPDGTWTPADSAGGSAGGSAGG [r11_732_TrMRF]
folding stability dG unfold [1]: -0.908 ± 0.2 kcal/mol | folding stability dG unfold [2]: < -1 kcal/mol

SAGGSAGGSAGVKRIKDVRNPNGNKIRDVEVEEENDPNGNKYLTIKARHKNGNEQEHTLPSAGGSAGGSAGG [r11_810_TrROS]
folding stability dG unfold [1]: 0.568 ± 0.25 kcal/mol | folding stability dG unfold [2]: -0.18 ± 0.75 kcal/mol

SAGGSAGGSAGVRIPPGYLVRIKFPGNGEREIPIDTPEIEIPGIENVTIEVYPLKKGEPISAGGSAGGSAGG [r11_43_TrROS]
folding stability dG unfold [1]: 0.553 ± 0.19 kcal/mol | folding stability dG unfold [2]: 0.167 ± 0.2 kcal/mol

SAGGSAGGSAGWNIEPKPEPERDPDGNPQPRMEIKIRVPPPTAEQAQEWAKENGLPVTVYSAGGSAGGSAGG [r17_114_TrROS]
folding stability dG unfold [1]: -0.0462 ± 0.17 kcal/mol | folding stability dG unfold [2]: < -1 kcal/mol

SAGGSAGGSAILRIKLEHPKSGKPMTWVIPPEMNIEQIADMLMEQHPNAEIKDIEWVPPNQISAGGSAGGSA [r18_242_TrROS]
folding stability dG unfold [1]: 0.3 ± 0.12 kcal/mol | folding stability dG unfold [2]: -0.0546 ± 0.097 kcal/mol

SAGGSAGGSAKRTIFIPAEDLQKNPDNAEELAQTIAEEFNDNGKEIKIEQHPDGGVVIELKSAGGSAGGSAG [r3_75_TrROS]
folding stability dG unfold [1]: -0.3 ± 0.1 kcal/mol | folding stability dG unfold [2]: < -1 kcal/mol

SAGGSAGGSAKSALDQMKGQKFTFYHPGGEQPVPITIEPDKDDNFVVKFPNKKPYPMPIDDISAGGSAGGSA [r18_169_TrROS]
folding stability dG unfold [1]: -1.29 ± 0.81 kcal/mol | folding stability dG unfold [2]: < -1 kcal/mol

SAGGSAGGSAMKLLETKVSRSLVPETGVVVTPVTTTTLGPGGKREVIEETEVRVLPPDAPPPSAGGSAGGSA [r18_95_JUSTAS]
folding stability dG unfold [1]: -0.625 ± 0.19 kcal/mol | folding stability dG unfold [2]: < -1 kcal/mol

SAGGSAGGSAMLTLRFELPDGSERELRLPGVTPEEAAALAAELARREGVARVEVYPPGVERSAGGSAGGSAG [r3_160_JUSTAS]
folding stability dG unfold [1]: 0.532 ± 0.26 kcal/mol | folding stability dG unfold [2]: -0.823 ± 0.44 kcal/mol

SAGGSAGGSAMPERRAAEAAAAPPPVPKVVITSPGSEEEARRIEEELRAAPGVEEVTVTVVPRLSAGGSAGG [r6_285_JUSTAS]
folding stability dG unfold [1]: 0.804 ± 0.045 kcal/mol | folding stability dG unfold [2]: 0.0774 ± 0.16 kcal/mol

SAGGSAGGSAMPLGVTTSTSTSLLPSNSRLVTETITTPGTTSTTTTLLTPPPGEVLETTTTSSAGGSAGGSA [r18_459_JUSTAS]
folding stability dG unfold [1]: 0.997 ± 0.027 kcal/mol | folding stability dG unfold [2]: 0.526 ± 0.09 kcal/mol

SAGGSAGGSAPFENLPEDAKEVEITFDPSLSEEVRKALAEELKPRIEAQGIKYKFKIVPKSNLSAGGSAGGS [r12_456_JUSTAS]
folding stability dG unfold [1]: -0.448 ± 0.59 kcal/mol | folding stability dG unfold [2]: < -1 kcal/mol

SAGGSAGGSAPGKHKTIEINGPGDVEEAVDYAKDEMPPGKPIHIRFNDEPITIPAEDAKKISAGGSAGGSAG [r3_50_TrROS]
folding stability dG unfold [1]: 0.445 ± 0.047 kcal/mol | folding stability dG unfold [2]: -0.0642 ± 0.22 kcal/mol

SAGGSAGGSAPNIRAKIEPKPDPGGPKLTIDVEDPDNPELPAEEVAKALEEEFPPDKIEPVSAGGSAGGSAG [r3_226_TrROS]
folding stability dG unfold [1]: -0.7 ± 0.083 kcal/mol | folding stability dG unfold [2]: < -1 kcal/mol

SAGGSAGGSAPRLVRVRGPDGGERVIPVPPDVLADRIPPDVPVRVPVVREDGRFRFRVERGSAGGSAGGSAG [r3_86_TrMRF]
folding stability dG unfold [1]: -0.819 ± 0.88 kcal/mol | folding stability dG unfold [2]: < -1 kcal/mol

SAGGSAGGSASLDPVVVTVTRYPTGVTTTTVSSRPGGEPVTTTTTYDPVSPVAPLPASRLASAGGSAGGSAG [r3_336_JUSTAS]
folding stability dG unfold [1]: 0.59 ± 0.032 kcal/mol | folding stability dG unfold [2]: 0.167 ± 0.12 kcal/mol

SAGGSAGGSASLIVISPPGAPRTIPLEGLVEKGIPEREAAELLEKELGIEINLSEPGVIRAKSAGGSAGGSA [r18_7_JUSTAS]
folding stability dG unfold [1]: 0.249 ± 0.044 kcal/mol | folding stability dG unfold [2]: -0.186 ± 0.12 kcal/mol

SAGGSAGGSASLVVVTTKPPNGPETVELTTDYPPDVRRVTTDPKTGATSEVVVLPADAVLPSAGGSAGGSAG [r3_356_JUSTAS]
folding stability dG unfold [1]: 0.873 ± 0.06 kcal/mol | folding stability dG unfold [2]: 0.295 ± 0.2 kcal/mol

SAGGSAGGSASMSTTEITVTELEEPGEGKRLVIETKSFTPEGKEIDSEKVEEEVREELGVKPSAGGSAGGSA [r18_332_JUSTAS]
folding stability dG unfold [1]: -0.0823 ± 0.079 kcal/mol | folding stability dG unfold [2]: -0.585 ± 0.24 kcal/mol

SAGGSAGGSAVEFTDPNGAEVLEIKPLPDGTTRVLTKLPGGEIPIVTYDPNTGKITTTLLPASAGGSAGGSA [r18_483_JUSTAS]
folding stability dG unfold [1]: 0.135 ± 0.11 kcal/mol | folding stability dG unfold [2]: -0.251 ± 0.2 kcal/mol

SAGGSAGGSDIEIIINPNMSLEQAKKFANYLAQENNIPIEIEIIPPPKPEPEPERDPEDGKPKSAGGSAGGS [r12_159_TrROS]
folding stability dG unfold [1]: -0.232 ± 0.36 kcal/mol | folding stability dG unfold [2]: < -1 kcal/mol

SAGGSAGGSDKDVKIKVDPERTPDGNYYYRIEIENGKEINIHMPPENMTPEDAKDFVKDIIKKSAGGSAGGS [r12_218_TrROS]
folding stability dG unfold [1]: -0.44 ± 0.39 kcal/mol | folding stability dG unfold [2]: < -1 kcal/mol

— the supplement of paper PMC12764529
